Assay results from the supplement of paper PMC12042874.
± gives the uncertainty stated by the source.

Experiment: amyloid nucleation score (Sup35N fusion, yeast selection) (log enrichment); library NNK3; higher = more nucleation; inactive = no reads after selection
Method in brief: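 Output and input plasmid inserts were sequenced by Illumina after psi-negative yeast carrying Sup35N fused to peptides of 20 random codons had been induced 24 hours with 100 μM copper sulfate and grown 7 days at 30°C on medium lacking adenine and uracil. The nucleation score is the DiMSum log enrichment of output over input reads, centred on the mode score of non-aggregating sequences. Sequences with under 100 input reads were excluded.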

Substance	amyloid nucleation score
WIDGINWLSSLVTAIKHSVK	inactive
WIGVQCP	inactive
WIMWNMRAKNLKLLPARARV	inactive
WKEWLGMGLLVSNAGHKQGG	inactive
WKFINDIASN	inactive
WKGLL	inactive
WKYRMTQRPQMVNWNVLRYE	inactive
WLFAIFGDGAVFGSYGGWGV	inactive
WLRRN	inactive
WLSGACEPPF	0.718 ± 0.28
WLSRLVGFALSTKLGP	inactive
WLSRPLCIIGWASRSMRGSH	inactive
WLVGFLFILWV	inactive
WLVGICWNWRWHLAVAGVVG	inactive
WLWVGIGLRSYELLNEEW	inactive
WMDIYW	0.403 ± 0.24
WMDNAI	inactive
WMGSVCSFRSIPCSMSTLR	inactive
WMMMNFHLSMQD	1.6 ± 0.087
WMPDPRVCQKMFVMCKHSP	inactive
WMVNVTGWISHGRFGYNFLI	inactive
WMYRKTSNRICCLPRESVNP	inactive
WNRTEDMR	inactive

Substance	amyloid nucleation score
WNTGNMLPSVFTQMFA	inactive
WNYPFNFQF	inactive
WPLYNFVISWIGRTYYSVYL	inactive
WRAAIEDASLFIERIHNNSS	inactive
WRDFLYLRHGFQYGIRPMSE	inactive
WRFFDVDNNMSTHVLKQLRC	inactive
WRKTRGLNILRLWSLVSFRM	inactive
WRRLRATISNGAWD	inactive
WRTFLCWYVLGPKTSFEYGR	inactive
WRVSLWLGWNLFWTCSNPAD	inactive
WSIMSLNFRVDTHYSVHRYV	1.95 ± 0.099
WSRHSTMGTRPEKQVLWPAG	inactive
WSRLDMMLRLLAVLLPVRLD	inactive
WSRSNGVFVGGRNCFLAQDF	inactive
WSSSS	inactive
WSVGATWVVAFA	inactive
WSVSKCDVLGLNSDVFKLWL	inactive
WVCTVVLVKDLPPRRSVLVG	inactive
WVCYNKFSVCVWLVDKAD	2.01 ± 0.095
WVQVRRVKIE	inactive
WVSSFTVAWKGGKQRVITVE	inactive
WVVKKVPDGRFLFVDCVCGI	inactive
WVVRYMDYSLMD	inactive

Substance	amyloid nucleation score
WWCLFWVSWN	inactive
WWNLWSPAATATRRCY	-0.462 ± 0.9
WWRKPLTFNDRIWRLRKHRS	inactive
WWSYQGRLVGCGYMRTDNAP	inactive
WYAKCCKV	inactive
WYALYSIWVKHTHLCERTVE	inactive
WYPGMCFESVDTMDRHLHND	inactive
WYRLRYSQST	inactive
WYSYPNFG	inactive
YAALILGVVQCAGLILFYVI	inactive
YACMCLCELSASYKLDTMC	inactive
YAFISDYQYGILFYIKWYFG	inactive
YAGFTQNDNVKLYTGNPFHM	inactive
YAKFCVSASYGVCQKLHGQF	0.331 ± 0.37
YASYGSKGGITTLRRIISGS	inactive
YCDSCLNDFLVWYF	inactive
YCDSVWNQNSTYHISL	inactive
YCETSLLCCCSIPWYLNCIE	inactive
YCFVPRIMYMVCQYCVLTND	inactive
YCGNLYRDFLGQQPF	inactive
YCVWFPSVCFIRRYVSIRLI	inactive
YCVWLVSKTISWFQTVFI	inactive
YDCVIYSVAECLYVTSSFIE	0.253 ± 0.18

Substance	amyloid nucleation score
YDFYTIVNIRTLHPRLIFFM	-0.195 ± 0.9
YDGCDS	inactive
YDGVNKLRSVCCVESSDFGL	inactive
YDIMVVWWFFVCSRSV	inactive
YDMTRHLYVSSPEIVKPY	inactive
YDRAKSQRIRAQPESTSSVL	0.593 ± 0.19
YDYYFFNSFNISDIMR	inactive
YEDAAILDVCDPQIELLLHQ	inactive
YEKYDTKVWNCG	inactive
YELGIHWTYCWL	2.39 ± 0.064
YEMMCQYVYECWYIIDARRM	0.06 ± 0.23
YFCFVLFYLN	2.04 ± 0.07
YFDCNFVW	0.997 ± 0.14
YFEVDNLRRIQRRLICLGPE	0.891 ± 0.27
YFFIPVKW	inactive
YFFSVAISKVYDFSVKSRCT	1.98 ± 0.086
YFGNSGWDHGWPVVHKMSFS	inactive
YFGVTLLMYERARWASFYRF	inactive
YFHGFLFYSE	inactive
YFIVSWFFQNCFR	1.19 ± 0.12
YFLFNTYWDRALQSKTVGGL	inactive
YFLGECNPRCYLLRGLAAWN	inactive
YFLLYTVNGGTASTLNYV	2.15 ± 0.093

Substance	amyloid nucleation score
YFLQTEAEVSFEQEVVAISL	inactive
YFMVEVMLILMSDGAFYTFC	inactive
YFNGATS	inactive
YFNRNQYVDDTCG	inactive
YFPSYYVADFSSHLLMGQVY	inactive
YFQGWSMVCSDVSTGKSVVM	inactive
YFRFFTFSNCRDYKDTYPTL	0.972 ± 0.23
YFSAIFFDSLYMLYGSNRAV	0.356 ± 0.24
YFSSLNSNFWGVVRRRLLYN	inactive
YFSYLCGVRYLYCFKLCSSM	inactive
YFTQNSSYVGV	inactive
YFYIPGH	inactive
YGAMSAGDMETY	inactive
YGCGIQGLVQWTCDTGRMHC	inactive
YGCRRDIFKYSMTLLMDAID	inactive
YGEAAYRDRS	inactive
YGFRMRRLVARLESRQWFWG	inactive
YGFRVCYPQASMSTVVEHSR	inactive
YGGDSNRIRVRLFKMKTLNL	inactive
YGKFMLLPVAGGIFVFENML	1.25 ± 0.14
YGNEFEDNPSMATTTDQRAR	0.468 ± 0.22
YGSIV	inactive
YGVLS	inactive

Substance	amyloid nucleation score
YHAYRTGE	inactive
YHDFLYIEGWQMSETNSFEC	inactive
YHLSQAYDMKVYILNRCGLF	0.506 ± 0.38
YHLYDETMCMP	inactive
YHPYRWLHESRL	inactive
YHSLYTAPDEGLFYRNRRKF	inactive
YHSSVCTDVIYGTTYWGCAV	inactive
YHWSS	inactive
YICLYHLLVWWDRQFRGFNS	inactive
YICNY	inactive
YIFVSRIIGVPFRLVQVTSG	inactive
YIGVYYLN	0.431 ± 0.28
YIIFNFIDFYKPGWGFQWTV	2.82 ± 0.052
YIMAFCCLLPNPPVSVLMAH	inactive
YIRELARPTLSRIKRLAPIS	inactive
YIRLCSVFGTTWYARLDG	0.459 ± 0.27
YISNMLTLSPAKVSHKSWVI	0.186 ± 0.29
YISYLDMDCEFVLS	inactive
YITDYNQVSAHTQNKKTMGY	inactive
YIVLKYSEMRTRVTDYRTTG	inactive
YIWTMWSSSLCVLMGAKGAA	inactive
YKEMVHRSG	inactive
YKEMVRRNLSRANKFDCGSM	inactive

Substance	amyloid nucleation score
YKGYSVCIVLPFG	-0.542 ± 0.98
YKLNMLLGYLLMFTLGIHAV	inactive
YKSLIVNANYCDLGFLRGWC	2.6 ± 0.064
YKSVYMRF	0.709 ± 0.18
YLCTGQAGCAYMPRS	inactive
YLEKAL	inactive
YLFRNLRGRAIFVNKIIGQR	inactive
YLHVVTWLMNACPGQPRHWL	inactive
YLICTRPILSLASLVS	inactive
YLKMLSVLKWRKNISRFVLP	inactive
YLKVADVSLHLSHDLTYLLM	inactive
YLLCGYRGATFRKHEVWGEG	-0.059 ± 0.78
YLLDKYEVAFIPSHLVLHSP	inactive
YLLRHILSIWKGWDWGTSQ	inactive
YLLSIEYVNLAIVDNSWRMF	1.04 ± 0.094
YLMFGTTNMAVLIRFEHH	inactive
YLMIIDRPKSHNLPYLGMLH	inactive
YLPRSW	inactive
YLQLTRQTSYVIIAL	inactive
YLSINHRTTSFYWYDFAGFP	0.537 ± 0.17
YLSVIKNTIPEMWIIVGVCR	inactive
YLSVVRGPMNRCSYYKVMTE	inactive
